Patent US20160223554A1, “METHODS FOR DIAGNOSIS, PROGNOSIS AND METHODS OF TREATMENT” (priority 2011, published 2016)

Key:
Type in all cases: cell-based, human
AML blasts = experiment: SCNP signaling and apoptosis nodes in AML BMMC (Example 4, Study No. 2)
[1] = test system: AML bone marrow mononuclear cells (BMMC); experiment: SCNP of paired diagnosis and relapse AML BMMC and independent diagnostic set (Example 5); conditions: for modulator responsive cells in the diagnostic AML bone marrow samples: diagnosis samples of Patients 1 and 2, 15 minutes modulation; for cells in which both p-Akt and p-S6 were induced: SCF 20 ng/ml, 15 minutes
From the text: All AML bone marrow mononuclear cells (BMMC) were derived from the bone marrow (BM) of AML patients treated at MD Anderson Cancer Center (MDACC) between September 1999 and September 2006. Clinical data were de-identified in compliance with Health Insurance Portability and Accountability Act regulations. Patient/sample inclusion criteria required a diagnosis of French-American-British (FAB) classification of M0 through M7 AML (excluding M3) AML, collection prior to therapy initiation and at least 50% viability upon sample thaw. For the identification of chemoresistant signaling profiles, two longitudinally paired BMMC samples at diagnosis (collection prior to the initiation of induction chemotherapy) and first relapse, were examined. An independent test set comprised of 47 BMMC samples collected at diagnosis from AML patients with a disease response of CR after high dose cytarabine based chemotherapy was used to assess the ability of the identified signaling profiles to predict disease relapse. Healthy, unstimulated BMMC (n=2) were purchased from a commercial source (All Cells) to serve as a control. All samples underwent fractionation over Ficoll-Hypaque prior to cryopreservation with 90% fetal bovine serum and 10% dimethyl sulfoxide and storage in liquid nitrogen.
The SCNP assay measured response to growth factors and cytokines involved in hematopoietic progenitor or myeloid biology (SCF, FLT3L, G-CSF, IL-27), drug transporter (ABCG2, MRP-1) and chemokine receptors (CXCR4) associated with adverse disease prognosis in AML, and the c-Kit growth factor receptor for SCF. The SCF and FLT3L—mediated PI3K/Akt and MAPK pathway is important for maintaining the hematopoietic stem cell pool; G-CSF-mediated Jak/STAT pathway activation is important for neutrophilic differentiation of hematopoietic progenitor cells; interleukin (IL)-27 mediated Jak/STAT pathway activation is important in regulating proliferation and differentiation of hematopoietic stem cells; CXCR4 expression is associated with disease relapse and decreased survival; and drug transporter expression levels (i.e. ABCG2 and MRP-1) are known to be associated with adverse prognosis in AML. All together, approximately 20 signaling nodes were evaluated in each sample.
SCNP assays were performed as described previously. Cryopreserved samples were thawed at 37° C. and washed once in warm PBS containing 10% FBS (HyClone, Waltham, Mass., USA) and 2 mM EDTA. […] The cells were re-suspended in RPMI containing 1% FBS, aliquoted to 100,000 cells/condition and rested for 1-2 hours at 37° C. Cells were incubated for 15 minutes at 37° C. with each of the following signaling modulators: fins-like tyrosine kinase receptor-3 ligand (FLT3L, 50 ng/ml; eBiosciences, San Diego, Calif., USA); granulocyte colony-stimulating factor (G-CSF, 50 ng/ml; R&D Systems, Minneapolis, Minn., USA); interleukin-27 (IL-27, 50 ng/ml, R&D Systems); stem cell factor (SCF, 20 ng/ml, R&D Systems). After exposure to modulators, cells were fixed with a final concentration of 1.6% paraformaldehyde (Electron Microscopy Sciences, Hatfield, Pa., USA) for 10 minutes at 37° C. Cells were pelleted and then permeabilized with 100% ice-cold methanol (Sigma-Aldrich, St. Louis, Mo., USA) and stored at −80° C. overnight. Subsequently, cells were washed with FACS buffer containing phosphate buffered saline (PBS, Fisher Scientific, Waltham, Mass., USA), 0.5% bovine serum albumin (BSA, Ankeny, Iowa, USA), 0.05% NaN3 (Mallinckrodt, Hazelwood, Mo., USA), pelleted and stained with cocktails of fluorochrome-conjugated antibodies. As an exploratory effort, when sufficient number of cells were available, simultaneous measurement of c-Kit expression and SCF induced signaling was also performed. Antibodies were available from commercial vendors such as BD, Bechman Coulter, Invitrogen and R&D Systems.
Flow cytometry data was acquired on an LSR II and/or CANTO II flow cytometer using the FACS DIVA software (BD Biosciences, San Jose, Calif.). […]

AML PBMC = experiment: Kinase inhibitor Signaling Arm, SCNP (Example 13); conditions: range over AML PBMC samples (N=6); short modulation, 15 minutes
[2] = Study No.2, patients age 60 and older
[3] = Study No.2, patients with De Novo AML
[4] = Study No.2, patients with Secondary AML
[5] = Fold metric, all patients, Study No. 2
[6] = Study No.2, patients less than 60 years old
[7] = TotalPhospho metric, all patients, Study No. 2

For SCF: stem cell factor, ligand of c-Kit, the “Mean Value of CRs, p-S6 Fold” value (AML blasts; [2]) was 0.14, the “Mean Value of NRs, p-S6 Fold” value (AML blasts; [2]) was 0.70 and the “Mean Value of CRs, p-Akt Fold” value (AML blasts; [3]) was 0.52. The “Mean Value of CRs, p-PLCy2 TotalPhospho” value (AML blasts; [3]) was 1.29, the “Mean Value of CRs, p-S6 Fold” value (AML blasts; [3]) was 1.05 and the “Mean Value of NRs, p-Akt Fold” value (AML blasts; [3]) was −0.20. For the same molecule, the “Mean Value of NRs, p-PLCy2 TotalPhospho” value (AML blasts; [3]) was 1.96, the “Mean Value of NRs, p-S6 Fold” value (AML blasts; [3]) was 0.43 and the “Mean Value of CRs, p-S6 Fold” value (AML blasts; [4]) was 0.21. The “Mean Value of NRs, p-S6 Fold” value (AML blasts; [4]) was 1.28, the “modulator responsive cells in the diagnostic AML bone marrow samples” value (shortened to “modulator responsive cells”) [1] was about 1% and the “cells in which both p-Akt and p-S6 were induced” value ([1]; relapse sample from Patient 1) was 3.2%. For the same molecule, the “cells in which both p-Akt and p-S6 were induced” value ([1]; relapse sample from Patient 2) was 31.7% and the “percentage of growth factor responsive cells” value (“percentage” for short) (AML PBMC) was 6%-49%.

B1: IL-27: interleukin-27, cytokine modulator (protein, UniProt Q8NEV9 29-243; Q14213 21-229, looked up)
Interleukin-27 subunit alpha: FPRPPGRPQLSLQELRREFTVSLHLARKLLSEVRGQAHRFAESHLPGVNLYLLPLGEQLPDVSLTFQAWRRLSDPERLCFISTTLQPFHALLGGLGTQGRWTNMERMQLWAMRLDLRDLQRHLRFQVLAAGFNLPEEEEEEEEEEEEERKGLLPGALGSALQGPAQVSWPQLLSTYRLLHSLELVLSRAVRELLLLSKAGHSVWPLGFPTLSPQP
Interleukin-27 subunit beta: RKGPPAALTLPRVQCRASRYPIAVDCSWTLPPAPNSTSPVSFIATYRLGMAARGHSWPCLQQTPTSTSCTITDVQLFSMAPYVLNVTAVHPWGSSSSFVPFITEHIIKPDPPEGVRLSPLAERQLQVQWEPPGSWPFPEIFSLKYWIRYKRQGAARFHRVGPIEATSFILRAVRPRARYYVQVAAQDLTDYGELSDWSLPATATMSLGK
With B1 the “Mean Value of CRs, p-Stat3” value (AML blasts; [5]) was 0.22, the “Mean Value of NRs, p-Stat3” value (AML blasts; [5]) was 0.58 and the “Mean Value of CRs, p-Stat3 Fold” value (AML blasts; [2]) was −0.19. For the same molecule, the “Mean Value of NRs, p-Stat3 Fold” value (AML blasts; [2]) was 0.48, the “Mean Value of CRs, p-Stat1 TotalPhospho” value (AML blasts; [6]) was 1.73 and the “Mean Value of CRs, p-Stat3 Fold” value (AML blasts; [6]) was 0.29. For the same molecule, the “Mean Value of CRs, p-Stat3 TotalPhospho” value (AML blasts; [6]) was 1.97, the “Mean Value of NRs, p-Stat1 TotalPhospho” value (AML blasts; [6]) was 3.12 and the “Mean Value of NRs, p-Stat3 Fold” value (AML blasts; [6]) was 0.72. For the same molecule, the “Mean Value of NRs, p-Stat3 TotalPhospho” value (AML blasts; [6]) was 3.06, the “Mean Value of CRs, p-Stat1 Fold” value (AML blasts; [4]) was 0.32 and the “Mean Value of CRs, p-Stat1 TotalPhospho” value (AML blasts; [4]) was 1.50. For the same molecule, the “Mean Value of CRs, p-Stat3 Fold” value (AML blasts; [4]) was −0.01, the “Mean Value of CRs, p-Stat3 TotalPhospho” value (AML blasts; [4]) was 1.61 and the “Mean Value of NRs, p-Stat1 Fold” value (AML blasts; [4]) was 1.90. The “Mean Value of NRs, p-Stat1 TotalPhospho” value (AML blasts; [4]) was 3.19, the “Mean Value of NRs, p-Stat3 Fold” value (AML blasts; [4]) was 0.76 and the “Mean Value of NRs, p-Stat3 TotalPhospho” value (AML blasts; [4]) was 2.60. For the same molecule, the “Mean Value of CRs, p-Stat1” value (AML blasts; [7]) was 1.66, the “Mean Value of CRs, p-Stat3” value (AML blasts; [7]) was 1.88 and the “Mean Value of NRs, p-Stat1” value (AML blasts; [7]) was 2.63. For the same molecule, the “Mean Value of NRs, p-Stat3” value (AML blasts; [7]) was 2.43 and the “modulator responsive cells” value [1] was “no IL-27 responsive subpopulation was identified”.

B2: FLT3L: fms-like tyrosine kinase receptor-3 ligand (protein, UniProt P49771 27-235, looked up)
Fms-related tyrosine kinase 3 …: TQDCSFQHSPISSDFAVKIRELSDYLLQDYPVTVASNLQDEELCGGLWRLVLAQRWMERLKTVAGSKMQGLLERVNTEIHFVTKCAFQPPPSCLRFVQTNISRLLQETSEQLVALKPWITRQNFSRCLELQCQPDSSTLPPPWSPRPLEATAPTAPQPPLLLLLLLPVGLLLLAAAWCLHWQRTRRRTPRPGEQVPPVPSPQDLLLVEH
B2 was tested, and the “Mean Value of CRs, p-Akt Fold” value (AML blasts; [2]) was 0.00, the “Mean Value of CRs, p-Erk Fold” value (AML blasts; [2]) was 0.01 and the “Mean Value of CRs, p-S6 Fold” value (AML blasts; [2]) was −0.06. The “Mean Value of NRs, p-Akt Fold” value (AML blasts; [2]) was 0.36, the “Mean Value of NRs, p-Erk Fold” value (AML blasts; [2]) was 0.21 and the “Mean Value of NRs, p-S6 Fold” value (AML blasts; [2]) was 0.67. The “Mean Value of CRs, p-PLCy2 TotalPhospho” value (AML blasts; [3]) was 1.26, the “Mean Value of NRs, p-PLCy2 TotalPhospho” value (AML blasts; [3]) was 1.95 and the “Mean Value of CRs, P-Erk Fold” value (AML blasts; [4]) was 0.00. For the same molecule, the “Mean Value of CRs, p-Akt Fold” value (AML blasts; [4]) was 0.19, the “Mean Value of CRs, p-S6 Fold” value (AML blasts; [4]) was 0.12 and the “Mean Value of NRs, P-Erk Fold” value (AML blasts; [4]) was 0.32. For the same molecule, the “Mean Value of NRs, p-Akt Fold” value (AML blasts; [4]) was 0.60, the “Mean Value of NRs, p-S6 Fold” value (AML blasts; [4]) was 1.02 and the “modulator responsive cells” value [1] was about 1%. For the same molecule, the “percentage” value (AML PBMC) was 3%-22%.

B3: G-CSF: granulocyte colony-stimulating factor (protein, UniProt P09919 31-207, looked up)
Granulocyte …: TPLGPASSLPQSFLLKCLEQVRKIQGDGAALQEKLVSECATYKLCHPEELVLLGHSLGIPWAPLSSCPSQALQLAGCLSQLHSGLFLYQGLLQALEGISPELGPTLDTLQLDVADFATTIWQQMEELGMAPALQPTQGAMPAFASAFQRRAGGVLVASHLQSFLEVSYRVLRHLAQP
With B3 the “Mean Value of CRs, p-Stat1 Fold” value (AML blasts; [4]) was 0.00, the “Mean Value of CRs, p-Stat3 Fold” value (AML blasts; [4]) was 0.06 and the “Mean Value of CRs, p-Stat5 Fold” value (AML blasts; [4]) was 0.08. The “Mean Value of CRs, p-Stat5 TotalPhospho” value (AML blasts; [4]) was 2.58, the “Mean Value of NRs, p-Stat1 Fold” value (AML blasts; [4]) was 0.36 and the “Mean Value of NRs, p-Stat3 Fold” value (AML blasts; [4]) was 0.96. The “Mean Value of NRs, p-Stat5 Fold” value (AML blasts; [4]) was 1.07, the “Mean Value of NRs, p-Stat5 TotalPhospho” value (AML blasts; [4]) was 3.91 and the “modulator responsive cells” value [1] was about 1%. For the same molecule, the “percentage” value (AML PBMC) was 3%-56%.
